B1: Septin-4 (Homo sapiens), O43236-6 (parent)
chain: MIKRFLEDTTDDGELSKFVKDFSGNASCHPPEAKTWASRPQVPEPRPQAPDLYDDDLEFRPPSRPQSSDNQQYFCAPAPLSPSARPRSPWGKLDPYDSSEDDKEYVGFATLPNQVHRKSVKKGFDFTLMVAGESGLGKSTLVNSLFLTDLYRDRKLLGAEERIMQTVEITKHAVDIEEKGVRLRLTIVDTPGFGDAVNNTECWKPVAEYIDQQFEQYFRDESGLNRKNIQDNRVHCCLYFISPFGHGYGPSLRLLAPPGAVKGTGQEHQGQGCH
partner: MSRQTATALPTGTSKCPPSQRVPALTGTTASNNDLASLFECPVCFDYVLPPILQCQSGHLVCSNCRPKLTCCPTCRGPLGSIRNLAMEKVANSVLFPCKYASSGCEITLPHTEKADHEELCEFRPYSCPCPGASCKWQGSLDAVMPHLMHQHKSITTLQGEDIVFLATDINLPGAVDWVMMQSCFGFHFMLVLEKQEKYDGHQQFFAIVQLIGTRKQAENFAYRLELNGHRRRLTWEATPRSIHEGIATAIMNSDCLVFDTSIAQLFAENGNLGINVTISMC

Variants of: B1
Settings: with siah1_human SIAH1, Q8IUQ4

| effect of a mutation on the interaction | Variant |
| --- | --- |
| disrupting interaction | MIKRFLEDTTDDGELSKFVKDFSGNASCHPPEAKTWASRAQAPAPAPQAPDLYDDDLEFRPPSRPQSSDNQQYFCAPAPLSPSARPRSPWGKLDPYDSSEDDKEYVGFATLPNQVHRKSVKKGFDFTLMVAGESGLGKSTLVNSLFLTDLYRDRKLLGAEERIMQTVEITKHAVDIEEKGVRLRLTIVDTPGFGDAVNNTECWKPVAEYIDQQFEQYFRDESGLNRKNIQDNRVHCCLYFISPFGHGYGPSLRLLAPPGAVKGTGQEHQGQGCH [P40A;V42A;E44A;R46A] |
| disrupting interaction | MIKRFLEDTTDDGELSKFVKDFSGNASCHPPEAKTWASRPQAPAPAPQAPDLYDDDLEFRPPSRPQSSDNQQYFCAPAPLSPSARPRSPWGKLDPYDSSEDDKEYVGFATLPNQVHRKSVKKGFDFTLMVAGESGLGKSTLVNSLFLTDLYRDRKLLGAEERIMQTVEITKHAVDIEEKGVRLRLTIVDTPGFGDAVNNTECWKPVAEYIDQQFEQYFRDESGLNRKNIQDNRVHCCLYFISPFGHGYGPSLRLLAPPGAVKGTGQEHQGQGCH [V42A;E44A;R46A] |

Source: IntAct's records for PubMed 21185211
